Laboratory results as given in article PMC13429012 (Structure (London, England : 1993), 2016).

Legend:
Rvb2(E166K) = Rvb2(E166K) (Saccharomyces cerevisiae, UniProt Q12464 1-471, E166K); assay: SEC
Rvb2 = Rvb2 (Saccharomyces cerevisiae, UniProt Q12464 1-471); assay: SEC
Sequence of Rvb2 (Q12464 whole entry): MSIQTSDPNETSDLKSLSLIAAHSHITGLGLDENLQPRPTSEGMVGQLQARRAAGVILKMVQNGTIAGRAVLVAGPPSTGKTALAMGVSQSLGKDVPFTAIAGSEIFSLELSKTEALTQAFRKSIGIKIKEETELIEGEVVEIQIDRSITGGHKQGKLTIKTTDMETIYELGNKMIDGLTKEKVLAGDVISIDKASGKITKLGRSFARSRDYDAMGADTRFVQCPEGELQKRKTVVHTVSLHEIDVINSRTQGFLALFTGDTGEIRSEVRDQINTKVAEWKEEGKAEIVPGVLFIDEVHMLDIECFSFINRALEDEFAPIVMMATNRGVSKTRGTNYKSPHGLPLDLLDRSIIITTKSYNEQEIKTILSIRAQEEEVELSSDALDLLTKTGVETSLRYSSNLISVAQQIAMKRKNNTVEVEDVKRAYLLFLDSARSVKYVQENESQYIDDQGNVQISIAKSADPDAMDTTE

Sequence of Rvb2(E166K) (Q12464 whole entry E166K): as the sequence (Q12464 whole entry) above, with E166K counted along it

Row | Binder | binding result (Rvb2(E166K)) | binding result (Rvb2)
1 | Rvb1 (natural protein, Saccharomyces cerevisiae, UniProt Q03940 1-463, looked up) MVAISEVKENPGVNSSNSGAVTRTAAHTHIKGLGLDESGVAKRVEGGFVGQIEAREACGVIVDLIKAKKMSGRAILLAGGPSTGKTALALAISQELGPKVPFCPLVGSELYSVEVKKTETLMENFRRAIGLRIKETKEVYEGEVTELTPEDAENPLGGYGKTISHVIVGLKSAKGTKTLRLDPTIYESIQREKVSIGDVIYIEANTGAVKRVGRSDAYATEFDLETEEYVPLPKGEVHKKKEIVQDVTLHDLDVANARPQGGQDVISMMGQLLKPKKTEITEKLRQEVNKVVAKYIDQGVAELIPGVLFIDEVNMLDIEIFTYLNKALESNIAPVVVLASNRGMTTVRGTEDVISPHGVPPDLIDRLLIVRTLPYDKDEIRTIIERRATVERLQVESSALDLLATMGTETSLRYALQLLAPCGILAQTSNRKEIVVNDVNEAKLLFLDAKRSTKILETSANYL | binds | –
2 | Rvb1(E146R) (natural protein, Saccharomyces cerevisiae, UniProt Q03940 1-463, looked up) MVAISEVKENPGVNSSNSGAVTRTAAHTHIKGLGLDESGVAKRVEGGFVGQIEAREACGVIVDLIKAKKMSGRAILLAGGPSTGKTALALAISQELGPKVPFCPLVGSELYSVEVKKTETLMENFRRAIGLRIKETKEVYEGEVTRLTPEDAENPLGGYGKTISHVIVGLKSAKGTKTLRLDPTIYESIQREKVSIGDVIYIEANTGAVKRVGRSDAYATEFDLETEEYVPLPKGEVHKKKEIVQDVTLHDLDVANARPQGGQDVISMMGQLLKPKKTEITEKLRQEVNKVVAKYIDQGVAELIPGVLFIDEVNMLDIEIFTYLNKALESNIAPVVVLASNRGMTTVRGTEDVISPHGVPPDLIDRLLIVRTLPYDKDEIRTIIERRATVERLQVESSALDLLATMGTETSLRYALQLLAPCGILAQTSNRKEIVVNDVNEAKLLFLDAKRSTKILETSANYL | – | binds
3 | Rvb1(K161E) (natural protein, Saccharomyces cerevisiae, UniProt Q03940 1-463, looked up) MVAISEVKENPGVNSSNSGAVTRTAAHTHIKGLGLDESGVAKRVEGGFVGQIEAREACGVIVDLIKAKKMSGRAILLAGGPSTGKTALALAISQELGPKVPFCPLVGSELYSVEVKKTETLMENFRRAIGLRIKETKEVYEGEVTELTPEDAENPLGGYGETISHVIVGLKSAKGTKTLRLDPTIYESIQREKVSIGDVIYIEANTGAVKRVGRSDAYATEFDLETEEYVPLPKGEVHKKKEIVQDVTLHDLDVANARPQGGQDVISMMGQLLKPKKTEITEKLRQEVNKVVAKYIDQGVAELIPGVLFIDEVNMLDIEIFTYLNKALESNIAPVVVLASNRGMTTVRGTEDVISPHGVPPDLIDRLLIVRTLPYDKDEIRTIIERRATVERLQVESSALDLLATMGTETSLRYALQLLAPCGILAQTSNRKEIVVNDVNEAKLLFLDAKRSTKILETSANYL | – | binds

Further lines, results first:

Row | binding result (Rvb2(E166K)) | binding result (Rvb2) | Binder
4 | – | binds | Rvb1(E150K) (natural protein, Saccharomyces cerevisiae, UniProt Q03940 1-463, looked up) MVAISEVKENPGVNSSNSGAVTRTAAHTHIKGLGLDESGVAKRVEGGFVGQIEAREACGVIVDLIKAKKMSGRAILLAGGPSTGKTALALAISQELGPKVPFCPLVGSELYSVEVKKTETLMENFRRAIGLRIKETKEVYEGEVTELTPKDAENPLGGYGKTISHVIVGLKSAKGTKTLRLDPTIYESIQREKVSIGDVIYIEANTGAVKRVGRSDAYATEFDLETEEYVPLPKGEVHKKKEIVQDVTLHDLDVANARPQGGQDVISMMGQLLKPKKTEITEKLRQEVNKVVAKYIDQGVAELIPGVLFIDEVNMLDIEIFTYLNKALESNIAPVVVLASNRGMTTVRGTEDVISPHGVPPDLIDRLLIVRTLPYDKDEIRTIIERRATVERLQVESSALDLLATMGTETSLRYALQLLAPCGILAQTSNRKEIVVNDVNEAKLLFLDAKRSTKILETSANYL
5 | – | binds | Rvb1(R180E) (natural protein, Saccharomyces cerevisiae, UniProt Q03940 1-463, looked up) MVAISEVKENPGVNSSNSGAVTRTAAHTHIKGLGLDESGVAKRVEGGFVGQIEAREACGVIVDLIKAKKMSGRAILLAGGPSTGKTALALAISQELGPKVPFCPLVGSELYSVEVKKTETLMENFRRAIGLRIKETKEVYEGEVTELTPEDAENPLGGYGKTISHVIVGLKSAKGTKTLELDPTIYESIQREKVSIGDVIYIEANTGAVKRVGRSDAYATEFDLETEEYVPLPKGEVHKKKEIVQDVTLHDLDVANARPQGGQDVISMMGQLLKPKKTEITEKLRQEVNKVVAKYIDQGVAELIPGVLFIDEVNMLDIEIFTYLNKALESNIAPVVVLASNRGMTTVRGTEDVISPHGVPPDLIDRLLIVRTLPYDKDEIRTIIERRATVERLQVESSALDLLATMGTETSLRYALQLLAPCGILAQTSNRKEIVVNDVNEAKLLFLDAKRSTKILETSANYL
